Measured values reported in FireProtDB (doi:10.1021/bi301421v).
Values joined by “and” are separate entries in the source; they are usually repeats but may differ in a detail not shown here. Equal entries are not always repeated.

Conditions: Helicobacter pylori (strain ATCC 700392 / 26695); pH 7.2; Thermal; CD; Tris-HCl 20 mM; transition: 2; reversible: yes; whole UniProt chain shown

B1: Arginase wild type, O25949 (protein)
chain: MILVGLEAELGASKRGTDKGVRRLREALSATHGDVIKGMQTITQERCVLYKEFRYAKNFEDYYLFCKENLIPCMKEVFEKKEFPLILSSEHANMFGIFQAFRSVHKDKKIGILYLDAHADIHTAYDSDSKHIHGMPLGMVLNRVRSGFNRMSESEEKAWQKLCSLGLEKGGLEIDPKCLVYFGVRSTEQSERDVIRELQIPLFSVDAIRENMQEVVQKTKESLKAVDIIYLSLDLDIMDGKLFTSTGVRENNGLSFDELKQLLGLLLESFKDRLKAVEVTEYNPTVSIKHNNEEEKQVLEILDLIINSCKIKDKKHSFARSY
For B1, the Tm was 70 °C and 68 °C.
